Data published in patent US20080300206.

Target: recombinant wild-type human alpha-synuclein

B1: GRK2 (protein)
chain: MADLEAVLADVSYLMAMEKSKATPAARASKKILLPEPSIRSVMQKYLEDRGEVTFEKIFSQKLGYLLFRDFCLNHLEEARPLVEFYEEIKKYEKLETEEERVARSREIFDSYIMKELLACSHPFSKSATEHVQGHLGKKQVPPDLFQPYIEEICQNLRGDVFQKFIESDKFTRFCQWKNVELNIHLTMNDFSVHRIIGRGGFGEVYGCRKADTGKMYAMKCLDKKRIKMKQGETLALNERIMLSLVSTGDCPFIVCMSYAFHTPDKLSFILDLMNGGDLHYHLSQHGVFSEADMRFYAAEIILGLEHMHNRFVVYRDLKPANILLDEHGHVRISDLGLACDFSKKKPHASVGTHGYMAPEVLQKGVAYDSSADWFSLGCMLFKLLRGHSPFRQHKTKDKHEIDRMTLTMAVELPDSFSPELRSLLEGLLQRDVNRRLGCLGRGAQEVKESPFFRSLDWQMVFLQKYPPPLIPPRGEVNAADAFDIGSFDEEDTKGIKLLDSDQELYRNFPLTISERWQQEVAETVFDTINAETDRLEARKKAKNKQLGHEEDYALGKDCIMHGYMSKMGNPFLTQWQRRYFYLFPNRLEWRGEGEAPQSLLTMEEIQSVEETQIKERKCLLLKIRGGKQFILQCDSDPELVQWKKELRDAYREAQQLVQRVPKMKNKPRSPVVELSKVPLVQRGSANGL
  S129 phosphorylation, immunoblot (11A5), rank of signal: CKI>GRK6>PLK2>GRK4>GRK5>GRK2
  in vitro kinase reaction, phosphorylation of alpha-synuclein at serine 129: capable of phosphorylating alpha-synuclein specifically at serine 129 and did not phosphorylate serine 87 in vitro

B2: MET (protein)
chain: KKRKQIKDLGSELVRYDARVHTPHLDRLVSARSVSPTTEMVSNESVDYRATFPEDQFPNSSQNGSCRQVQYPLTDMSPILTSGDSDISSPLLQNTVHIDLSALNPELVQAVQHVVIGPSSLIVHFNEVIGRGHFGCVYHGTLLDNDGKKIHCAVKSLNRITDIGEVSQFLTEGIIMKDFSHPNVLSLLGICLRSEGSPLVVLPYMKHGDLRNFIRNETHNPTVKDLIGFGLQVAKGMKYLASKKFVHRDLAARNCMLDEKFTVKVADFGLARDMYDKEYYSVHNKTGAKLPVKWMALESLQTQKFTTKSDVWSFGVLLWELMTRGAPPYPDVNTFDITVYLLQGRRLLQPEYCPDPLYEVMLKCWHPKAEMRPSFSELVSRISAIFSTFIGEHYVHVNATYVNVKCVAPYPSLLSSEDNADDEVDTRPASFWETS
  in vitro kinase reaction, phosphorylation of alpha-synuclein: shown to be incapable of directly phosphorylating alpha-synuclein

B3: PLK4 (protein)
chain: MATCIGEKIEDFKVGNLLGKGSFAGVYRAESIHTGLEVAIKMIDKKAMYKAGMVQRVQNEVKIHCQLKHPSILELYNYFEDSNYVYLVLEMCHNGEMNRYLKNRVKPFSENEARHFMHQIITGMLYLHSHGILHRDLTLSNLLLTRNMNIKIADFGLATQLKMPHEKHYTLCGTPNYISPEIATRSAHGLESDVWSLGCMFYTLLIGRPPFDTDTVKNTLNKVVLADYEMPSFLSIEAKDLIHQLLRRNPADRLSLSSVLDHPFMSRNSSTKSKDLGTVEDSIDSGHATISTAITASSSTSISGSLFDKRRLLIGQPLPNKMTVFPKNKSSTDFSSSGDGNSFYTQWGNQETSNSGRGRVIQDAEERPHSRYLRRAYSSDRSGTSNSQSQAKTYTMERCHSAEMLSVSKRSGGGENEERYSPTDNNANIFNFFKEKTSSSSGSFERPDNNQALSNHLCPGKTPFPFADPTPQTETVQQWFGNLQINAHLRKTTEYDSISPNRDFQGHPDLQKDTSKNAWTDTKVKKNSDASDNAHSVKQQNTMKYMTALHSKPEIIQQECVFGSDPLSEQSKTRGMEPPWGYQNRTLRSITSPLVAHRLKPIRQKTKKAVVSILDSEEVCVELVKEYASQEYVKEVLQISSDGNTITIYYPNGGRGFPLADRPPSPTDNISRYSFDNLPEKYWRKYQYASRFVQLVRSKSPKITYFTRYAKCILMENSPGADFEVWFYDGVKIHKTEDFIQVIEKTGKSYTLKSESEVNSLKEEIKMYMDHANEGHRICLALESIISEEERKTRSAPFFPIIIGRKPGSTSSPKALSPPPSVDSNYPTRERASFNRMVMHSAASPTQAPILNPSMVTNEGLGLTTTASGTDISSNSLKDCLPKSAQLLKSVFVKNVGWATQLTSGAVWVQFNDGSQLVVQAGVSSISYTSPNGQTTRYGENEKLPDYIKQKLQCLSSILLMFSNPTPNFH
  Fold Change in Percent Synuclein Phosphorylation, HEK-293 overexpression: 1 fold
  Proportion of total synuclein that is phoshorylated at ser-129, HEK-293 overexpression, ELISA: 1.9%
  in vitro biochemical assay, phosphorylation of synuclein: PLK4 exhibiting no ability to phosphorylate synuclein

B4: GRK7 (protein)
chain: MVDMGALDNLIANTAYLQARKPSDCDSKELQRRRRSLALPGLQGCAELRQKLSLNFHSLCEQQPIGRRLFRDFLATVPTFRKAATFLEDVQNWELAEEGPTKDSALQGLVATCASAPAPGNPQPFLSQAVATKCQAATTEEERVAAVTLAKAEAMAFLQEQPFKDFVTSAFYDKFLQWKLFEMQPVSDKYFTEFRVLGKGGFGEVCAVQVKNTGKMYACKKLDKKRLKKKGGEKMALLEKEILEKVSSPFIVSLAYAFESKTHLCLVMSLMNGGDLKFHIYNVGTRGLDMSRVIFYSAQIACGMLHLHELGIVYRDMKPENVLLDDLGNCRLSDLGLAVEMKGGKPITQRAGTNGYMAPEILMEKVSYSYPVDWFAMGCSIYEMVAGRTPFKDYKEKVSKEDLKQRTLQDEVKFQHDNFTEEAKDICRLFLAKKPEQRLGSREKSDDPRKHHFFKTINFPRLEAGLIEPPFVPDPSVVYAKDIAEIDDFSEVRGVEFDDKDKQFFKNFATGAVPIAWQEEIIETGLFEELNDPNRPTGCEEGNSSKSGVCLLL
  S129 phosphorylation, immunoblot (11A5): Prominent signals came from all GRKs except for GRK7
  in vitro kinase reaction, phosphorylation of alpha-synuclein at serine 129: capable of phosphorylating alpha-synuclein specifically at serine 129 and did not phosphorylate serine 87 in vitro
  phosphorylation of AS in vitro: GRK 7 was not able to phosphorylate at appreciable levels

B5: G protein-coupled receptor kinase 6 (GRK6) (protein)
chain: MELENIVANTVLLKAREGGGGNRKGKSKKWRQMLQFPHISQCEELRLSLERDYHSLCERQPIGRLLFREFCATRPELSRCVAFLDGVAEYEVTPDDKRKACGRQLTQNFLSHTGPDLIPEVPRQLVTNCTQRLEQGPCKDLFQELTRLTHEYLSVAPFADYLDSIYFNRFLQWKWLERQPVTKNTFRQYRVLGKGGFGEVCACQVRATGKMYACKKLEKKRIKKRKGEAMALNEKQILEKVNSRFVVSLAYAYETKDALCLVLTLMNGGDLKFHIYHMGQAGFPEARAVFYAAEICCGLEDLHRERIVYRDLKPENILLDDHGHIRISDLGLAVHVPEGQTIKGRVGTVGYMAPEVVKNERYTFSPDWWALGCLLYEMIAGQSPFQQRKKKIKREEVERLVKEVPEEYSERFSPQARSLCSQLLCKDPAERLGCRGGSAREVKEHPLFKKLNFKRLGAGMLEPPFKPDPQAIYCKDVLDIEQFSTVKGVELEPTDQDFYQKFATGSVPIPWQNEMVETECFQELNVFGLDGSVPPDLDWKGQPPAPPKKGLLQRLFSRQDCCGNCSDSEEELPTRL
  S129 phosphorylation in vitro, normalised by activity units: The most prominent result came from GRK6
  S129 phosphorylation, immunoblot (11A5), kinase:AS 1:200 molar: Prominent signals came from GRK6, CKI, CKII and PLK2
  S129 phosphorylation, immunoblot (11A5), rank of signal: CKI>GRK6>PLK2>GRK4>GRK5>GRK2
  in vitro kinase reaction, phosphorylation of alpha-synuclein at serine 129: capable of phosphorylating alpha-synuclein specifically at serine 129 and did not phosphorylate serine 87 in vitro
  phospho ser-129 level in vitro, normalised for molarity: roughly equivalent levels of phospho ser-129 between CKI, GRK6 and PLK2

B6: CDC7 cell division cycle 7-like 1 (CDC7L1) (protein)
chain: MEASLGIQMDEPMAFSPQRDRFQAEGSLKKNEQNFKLAGVKKDIEKLYEAVPQLSNVFKIEDKIGEGTFSSVYLATAQLQVGPEEKIALKHLIPTSHPIRIAAELQCLTVAGGQDNVMGVKYCFRKNDHVVIAMPYLEHESFLDILNSLSFQEVREYMLNLFKALKRIHQFGIVHRDVKPSNFLYNRRLKKYALVDFGLAQGTHDTKIELLKFVQSEAQQERCSQNKSHIITGNKIPLSGPVPKELDQQSTTKASVKRPYTNAQIQIKQGKDGKEGSVGLSVQRSVFGERNFNIHSSISHESPAVKLMKQSKTVDVLSRKLATKKKAISTKVMNSAVMRKTASSCPASLTCDCYATDKVCSICLSRRQQVAPRAGTPGFRAPEVLTKCPNQTTAIDMWSAGVIFLSLLSGRYPFYKASDDLTALAQIMTIRGSRETIQAAKTFGKSILCSKEVPAQDLRKLCERLRGMDSSTPKLTSDIQGHASHQPAISEKTDHKASCLVQTPPGQYSGNSFKKGDSNSCEHCFDEYNTNLEGWNEVPDEAYDLLDKLLDLNPASRITAEEALLHPFFKDMSL
  in vitro kinase reaction, phosphorylation of alpha-synuclein: shown to be incapable of directly phosphorylating alpha-synuclein

B7: PLK3 (protein)
chain: MEPAAGFLSPRPFQRAAAAPAPPAGPGPPPSALRGPELEMLAGLPTSDPGRLITDPRSGRTYLKGRLLGKGGFARCYEATDTETGSAYAVKVIPQSRVAKPHQREKILNEIELHRDLQHRHIVRFSHHFEDADNIYIFLELCSRKSLAHIWKARHTLLEPEVRYYLRQILSGLKYLHQRGILHRDLKLGNFFITENMELKVGDFGLAARLEPPEQRKKTICGTPNYVAPEVLLRQGHGPEADVWSLGCVMYTLLCGSPPFETADLKETYRCIKQVHYTLPASLSLPARQLLAAILRASPRDRPSIDQILRHDFFTKGYTPDRLPISSCVTVPDLTPPNPARSLFAKVTKSLFGRKKKSKNHAQERDEVSGLVSGLMRTSVGHQDARPEAPAASGPAPVSLVETAPEDSSPRGTLASSGDGFEEGLTVATVVESALCALRNCIAFMPPAEQNPAPLAQPEPLVWVSKWVDYSNKFGFGYQLSSRRVAVLFNDGTHMALSANRKTVHYNPTSTKHFSFSVGAVPRALQPQLGILRYFASYMEQHLMKGGDLPSVEEVEVPAPPLLLQWVKTDQALLMLFSDGTVQVNFYGDHTKLILSGWEPLLVTFVARNRSACTYLASHLRQLGCSPDLRQRLRYALRLLRDRSPA
  Fold Change in Percent Synuclein Phosphorylation, HEK-293 overexpression: 39.6 fold
  Proportion of total synuclein that is phoshorylated at ser-129, HEK-293 overexpression, ELISA: 79.2%
  in vitro biochemical assay, phosphorylation of synuclein: PLK2 and PLK3 having extremely robust phosphorylation of synuclein

B8: GRK4 (protein)
chain: MELENIVANSLLLKARQGGYGKKSGRSKKWKEILTLPPVSQCSELRHSIEKDYSSLCDKQPIGRRLFRQFCDTKPTLKRHIEFLDAVAEYEVADDEDRSDCGLSILDRFFNDKLAAPLPEIPPDVVTECRLGLKEENPSKKAFEECTRVAHNYLRGEPFEEYQESSYFSQFLQWKWLERQPVTKNTFRHYRVLGKGGFGEVCACQVRATGKMYACKKLQKKRIKKRKGEAMALNEKRILEKVQSRFVVSLAYAYETKDALCLVLTIMNGGDLKFHIYNLGNPGFDEQRAVFYAAELCCGLEDLQRERIVYRDLKPENILLDDRGHIRISDLGLATEIPEGQRVRGRVGTVGYMAPEVVNNEKYTFSPDWWGLGCLIYEMIQGHSPFKKYKEKVKWEEVDQRIKNDTEEYSEKFSEDAKSICRMLLTKNPSKRLGCRGEGAAGVKQHPVFKDINFRRLEANMLEPPFCPDPHAVYCKDVLDIEQFSVVKGIYLDTADEDFYARFATGCVSIPWQNEMIESGCFKDINKSESEEALPLDLDKNIHTPVSRPNRGFFYRLFRRGGCLTMVPSEKEVEPKQC
  S129 phosphorylation, immunoblot (11A5), rank of signal: CKI>GRK6>PLK2>GRK4>GRK5>GRK2
